The target of assay [1] is T1, cynomolgus ENTPD2, full length, on cells (cynomolgus macaque, UniProt Q9Y5L3 1-495 (human entry)).
T1 chain: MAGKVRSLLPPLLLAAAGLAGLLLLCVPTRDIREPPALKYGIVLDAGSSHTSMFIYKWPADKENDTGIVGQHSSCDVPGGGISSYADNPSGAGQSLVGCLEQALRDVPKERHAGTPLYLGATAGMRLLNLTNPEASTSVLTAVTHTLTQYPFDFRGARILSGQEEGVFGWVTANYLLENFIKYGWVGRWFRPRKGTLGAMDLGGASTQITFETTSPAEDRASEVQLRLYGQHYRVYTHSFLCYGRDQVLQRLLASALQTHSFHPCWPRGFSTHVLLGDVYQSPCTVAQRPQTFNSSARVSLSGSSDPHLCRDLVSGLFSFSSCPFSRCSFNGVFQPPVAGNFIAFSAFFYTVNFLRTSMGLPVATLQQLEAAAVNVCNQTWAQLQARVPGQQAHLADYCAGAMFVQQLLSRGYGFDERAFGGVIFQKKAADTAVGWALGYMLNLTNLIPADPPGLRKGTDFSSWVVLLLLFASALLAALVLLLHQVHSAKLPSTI
Kind of assay: cell-based or functional assay.

The target in assay [2] is T2, human ENTPD2, full length, on cells (human, UniProt Q9Y5L3 1-495).
T2 sequence: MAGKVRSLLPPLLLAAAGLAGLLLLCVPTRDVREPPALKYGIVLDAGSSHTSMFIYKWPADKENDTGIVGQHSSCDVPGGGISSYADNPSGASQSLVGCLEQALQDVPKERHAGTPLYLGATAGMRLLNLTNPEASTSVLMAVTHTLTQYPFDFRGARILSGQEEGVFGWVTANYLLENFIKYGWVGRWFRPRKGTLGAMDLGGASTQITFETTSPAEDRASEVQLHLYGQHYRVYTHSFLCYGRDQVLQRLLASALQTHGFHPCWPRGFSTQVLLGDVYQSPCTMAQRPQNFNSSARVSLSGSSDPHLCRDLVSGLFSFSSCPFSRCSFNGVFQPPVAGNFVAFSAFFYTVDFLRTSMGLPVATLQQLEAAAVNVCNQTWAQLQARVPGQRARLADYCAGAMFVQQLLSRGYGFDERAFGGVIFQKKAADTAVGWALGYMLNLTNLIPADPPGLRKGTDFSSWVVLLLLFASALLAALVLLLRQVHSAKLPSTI
Description: cell-based or functional assay.

The target of assay [3] is recombinant human ENTPD2 extracellular domain (residues 29-462) with C-terminal Avi-His6 tag (human, UniProt Q9Y5L3 29-462). Description: cell-based or functional assay.
Assay [4] deals with T2, human ENTPD2, full length, on cells. Description: flow cytometry on human ENTPD2 engineered B16LM3 clone B5 cells (human ENTPD2 expressed, endogenous mouse ENTPD2 knocked out); anti-mouse IgG-AF647 secondary. The text names the antibody as mAb13. A general note: In flow cytometry, cells or beads pass a laser one at a time.
Assay [5] deals with T3, mouse ENTPD2, full length, on cells (mouse, UniProt O55026 1-495).
T3 sequence: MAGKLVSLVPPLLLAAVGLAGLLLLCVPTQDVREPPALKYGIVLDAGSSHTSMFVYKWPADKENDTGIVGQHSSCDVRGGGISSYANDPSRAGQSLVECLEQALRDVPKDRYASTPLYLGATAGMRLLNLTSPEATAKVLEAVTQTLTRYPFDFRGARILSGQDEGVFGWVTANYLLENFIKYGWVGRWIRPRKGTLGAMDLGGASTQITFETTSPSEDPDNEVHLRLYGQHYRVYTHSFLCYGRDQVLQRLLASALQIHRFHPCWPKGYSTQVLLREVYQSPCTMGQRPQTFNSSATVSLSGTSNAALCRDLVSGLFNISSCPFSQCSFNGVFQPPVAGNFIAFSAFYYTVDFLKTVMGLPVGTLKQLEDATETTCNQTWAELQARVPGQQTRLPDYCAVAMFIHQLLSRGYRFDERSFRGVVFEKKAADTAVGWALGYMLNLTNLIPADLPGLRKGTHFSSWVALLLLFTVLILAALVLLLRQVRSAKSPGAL
Description: cell-based or functional assay.

Assay [6] has as its target T1, cynomolgus ENTPD2, full length, on cells. Kind of assay: FACS.

Here are results for eight molecules from patent US20240336701A1 (Novartis, published 2024).

Positions count from the first letter of the chain named.

B1: ANTI-HUMAN ENTPD2 MAB1 (antibody, human IgG1, kappa, V domains shown)
VH: EVQLVQSGAEVKKPGESLKISCKASGYTFTDYNMDWVRQMPGKGLEWMGDINPKYDISTYNQQFKGQVTISADKSIRTAYLQWSSLKASDTAMYYCARRGFFLYYGINYYYFDVWGQGTLVTVSS
VL: DIQLTQSPSSLSASVGDRVTITCSASSSVSYIHWFQQKPGKAPKLLIYSTSNLASGVPSRFSGSGSGTFFTLTISSLQPEDFATYFCHQWSSYPWTFGQGTKVEIKR
As to B1, in assay [1], the “Cyno ENTPD2 NIH/3T3 Assay % inhibition” value turned out to be 91% and the “Cyno ENTPD2 NIH/3T3 Assay IC50” value came out at 4.1 nM. Moreover, in assay [2], the “Human ENTPD2 NIH/3T3 Assay % inhibition” value is 92%, the “Human ENTPD2 NIH/3T3 Assay IC50” value stood at 1.1 nM, the “RKO Assay % inhibition” value was 97% and the “RKO Assay IC50” value is 0.8 nM. In addition, in assay [3], the “ENTPD2 Biochemical Assay at 1 uM ATP IC50” value (“ENTPD2 Biochemical Assay” for short) stood at 0.52 nM.

B2: ANTI-HUMAN ENTPD2 MAB20 (antibody, human IgG1, kappa, V domains shown)
VH: EVQLQQFGAELVKPGASVKISCKASGYTFTDYNMDWVKQSHGKSLEWIGDINPNYDITSYNQKFKGKATLTVDKSSSTAYMELRSLTSEDTAVYYCARRGFFLYYGSSYYYFDVWGAGTTVTVSS
VL: QIVLTQSPAIMSASLGEEITLTCSASSSVSYMHWYQQKSGTSPKLLIYSTSNLASGVPSRFSGSGSGTFYSLTISSVEAEDAADYYCHQWSSYPWTFGGGTKLEIKR
As for B2, in assay [3], the “ENTPD2 Biochemical Assay” value was found to be 17.5 nM.

B3: ANTI-HUMAN ENTPD2 MAB21 (antibody, human IgG1, kappa, V domains shown)
VH: EVQLQQSGPELVKPGASVKISCKTSGYTFTEYTMHWVKQSHGKSLEWIGGINPNNGITTYNQKFKGKATLTVDKSSSTAYMDLRSLTSEGSAVYYCARRGFPIYYYGTSLYYFDYWGQGTTLTVSS
VL: B2 VL with K38R, S49T
With B3, the “ENTPD2 Biochemical Assay” value in assay [3] was 0.87 nM.

B4: ANTI-HUMAN ENTPD2 MAB17 (antibody, human IgG1, kappa, V domains shown)
VH: B2 VH with N54K, T58S, S59T, K63Q, S107I, S108N
VL: B2 VL with M32I, K44T
For the molecule B4, in assay [1], the “Cyno ENTPD2 NIH/3T3 Assay % inhibition” value stood at 91% and the “Cyno ENTPD2 NIH/3T3 Assay IC50” value stood at 1 nM. Besides, in assay [2], the “Human ENTPD2 NIH/3T3 Assay % inhibition” value was found to be 98%, the “Human ENTPD2 NIH/3T3 Assay IC50” value worked out at 0.6 nM, the “RKO Assay % inhibition” value is 96% and the “RKO Assay IC50” value amounted to 0.5 nM. In addition, the “ENTPD2 Biochemical Assay” value in assay [3] stood at 0.27 nM.

B5: ANTI-mouse ENTPD2 MAB13 (antibody, mouse IgG2a, kappa, V domains shown)
VH: QVQLVQSGAELKQPGQSVKISCKASGYTFTHYGMNWVKQAPGQGLKWMGWINTDTGNPTYADDFKGRFVFSLDTSVSTAYLQISNLKNEDTATYYCVRYGTLYSGYGFFFDSWGQGTLVTVSS
VL: DIMMTQSPSSLSVSAGEKATITCKSSQSLFNSNTNKNYLNWYLQKPGQSPKLLFYYASTRHTGVPDRFIGSGSGTDFTLTITSVQDEDLADYYCQQWYSYPWTFGPGTKLEIKR
notes: also called Anti-ENTPD2 mAb13
On to B5, for which the binding result in assay [4] and in assay [6] was “no binding” throughout. Further, the “ENTPD2 Functional Assay IC50 (nM), mouse ENTPD2 NIH/3T3 cells” value (shortened to “ENTPD2 Functional Assay IC50 (nM)”) in assay [5] stood at 2.8 nM.

B6: ANTI-mouse ENTPD2 MAB14 (antibody, mouse IgG2a, kappa, V domains shown)
VH: B5 VH with T30W
VL: B5 VL
Take B6: the “ENTPD2 Functional Assay IC50 (nM)” value in assay [5] is 4.6 nM.

B7: ANTI-mouse ENTPD2 MAB15 (antibody, mouse IgG2a, kappa, V domains shown)
VH: B5 VH with T30H
VL: B5 VL
Consider B7, for which, in assay [5], the “ENTPD2 Functional Assay IC50 (nM)” value was 5.9 nM.

B8: ANTI-HUMAN ENTPD2 MAB16 (antibody, human IgG1, kappa, V domains shown)
VH: DIQLQESGPGLVKPSQSLSLTCSVTGYSITSGYYWNWIRQFPGNKLEWMGYISYDGDNNYNPSLKNRISITRDTSKNQFFLKLSSVTTEDTATYYCAGGYYRYGLSYYYVMDYWGQGTSVTVSS
VL: DTVLTQSPASLAVSLGQRATISCKASQSVDYDGNSYMNWYQQKPGQPPKLLIYAASNLESGIPARFSGSGSGTDFTLNIHPVEEEDAATYYCQQSNEDPPTFGGGTKLEIKR
With B8, in assay [1], the “Cyno ENTPD2 NIH/3T3 Assay % inhibition” value is 5% and the “Cyno ENTPD2 NIH/3T3 Assay IC50” value is greater than 133 nM. Further, in assay [2], the “Human ENTPD2 NIH/3T3 Assay % inhibition” value came to 30% and the “Human ENTPD2 NIH/3T3 Assay IC50” value was greater than 133 nM. Moreover, the “ENTPD2 Biochemical Assay” value in assay [3] is 77.3 nM.
